Experimental findings from patent US20120077731A1 (Ablynx, published 2012) are described below.

For experiment [1], the target named is T1, Human membrane IL-6R on cells (human, UniProt P08887 20-468).
T1 construct: whole, on cells; also called cell-surface expressed human IL-6R
T1 sequence (looked up): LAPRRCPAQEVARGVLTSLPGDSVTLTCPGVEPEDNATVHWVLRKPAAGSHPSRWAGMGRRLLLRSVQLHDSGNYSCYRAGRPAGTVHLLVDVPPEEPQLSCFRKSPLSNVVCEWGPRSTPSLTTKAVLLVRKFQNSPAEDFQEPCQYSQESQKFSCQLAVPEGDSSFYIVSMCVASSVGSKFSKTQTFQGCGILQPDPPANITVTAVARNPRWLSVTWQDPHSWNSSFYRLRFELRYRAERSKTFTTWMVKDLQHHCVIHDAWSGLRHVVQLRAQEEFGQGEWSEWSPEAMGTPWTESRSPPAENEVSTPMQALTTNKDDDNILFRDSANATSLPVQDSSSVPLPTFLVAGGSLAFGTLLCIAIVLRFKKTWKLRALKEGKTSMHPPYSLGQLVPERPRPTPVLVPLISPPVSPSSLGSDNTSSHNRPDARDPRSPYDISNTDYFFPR
The experiment is described as follows: flow cytometry, human PBL, granulocytes donor 1. In general terms: A flow cytometer gives signals particle by particle.
Experimental: (§1) The Nanobodies were incubated in EDTA-treated blood from 2 donors and bound Nanobody was detected by flow cytometry. Lymphocytes, monocytes and granulocytes were gated based on FSC/SSC properties (FIG. 40) and bound Nanobodies were detected in the PE channel.

Experiment [2] addresses T1, Human membrane IL-6R on cells. The experiment is described as follows: flow cytometry, human PBL, monocytes donor 2.
Experimental: as §1
Experiment [3] deals with T2, Cyno plasma sIL-6R (cynomolgus monkey, UniProt A0A2K5WN54 60-396).
T2 construct: also called cynomolgus sIL-6R
T2 sequence: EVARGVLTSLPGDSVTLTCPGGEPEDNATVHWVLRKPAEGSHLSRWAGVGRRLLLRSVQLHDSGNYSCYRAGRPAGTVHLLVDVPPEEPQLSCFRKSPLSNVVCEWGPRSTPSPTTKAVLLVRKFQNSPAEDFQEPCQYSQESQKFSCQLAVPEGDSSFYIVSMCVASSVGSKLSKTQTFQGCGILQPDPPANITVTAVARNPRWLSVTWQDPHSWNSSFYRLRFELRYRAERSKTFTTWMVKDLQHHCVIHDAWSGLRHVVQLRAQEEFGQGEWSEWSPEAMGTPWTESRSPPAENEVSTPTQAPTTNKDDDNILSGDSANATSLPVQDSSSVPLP
The experiment is described as follows: plasma potency ELISA, human against cyno plasma.

The target of experiment [4] is T1, Human membrane IL-6R on cells. The experiment is described as follows: flow cytometry, human PBL, monocytes donor 1.
Experimental: as §1
Experiment [5] addresses T3, Human plasma sIL-6R (human, UniProt P08887 20-355, limits assumed).
T3 construct: also called plasma-derived human IL-6R
T3 sequence (looked up): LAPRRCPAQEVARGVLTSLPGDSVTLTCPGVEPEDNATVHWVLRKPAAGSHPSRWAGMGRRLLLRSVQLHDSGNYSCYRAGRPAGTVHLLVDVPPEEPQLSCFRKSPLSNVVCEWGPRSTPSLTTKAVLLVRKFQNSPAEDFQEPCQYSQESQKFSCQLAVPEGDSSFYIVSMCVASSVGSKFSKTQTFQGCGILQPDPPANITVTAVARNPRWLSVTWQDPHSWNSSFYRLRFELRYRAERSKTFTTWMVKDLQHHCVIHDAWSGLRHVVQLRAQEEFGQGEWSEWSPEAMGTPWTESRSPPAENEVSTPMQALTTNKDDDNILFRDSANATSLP
The experiment is described as follows: plasma potency assay, human plasma, 42 nM IL6; blocked ligand IL-6.
Experimental: (§2) All 5 affinity matured Nanobodies and the sequence optimized Nanobody were also tested in a plasma potency assay. […] TMB was used as substrate.

Experiment [6] concerns the target T3, Human plasma sIL-6R. The experiment is described as follows: plasma potency ELISA, human plasma.
In experiment [7] the target is T1, Human membrane IL-6R on cells. The experiment is described as follows: flow cytometry, human PBL, granulocytes donor 2.
Experimental: as §1
The target in a further experiment is T4, Human soluble IL-6R (human, UniProt P08887 20-358).
T4 construct: Soluble recombinant form; biotinylated in some assays; also called hIL-6R; human IL-6R
T4 sequence (looked up): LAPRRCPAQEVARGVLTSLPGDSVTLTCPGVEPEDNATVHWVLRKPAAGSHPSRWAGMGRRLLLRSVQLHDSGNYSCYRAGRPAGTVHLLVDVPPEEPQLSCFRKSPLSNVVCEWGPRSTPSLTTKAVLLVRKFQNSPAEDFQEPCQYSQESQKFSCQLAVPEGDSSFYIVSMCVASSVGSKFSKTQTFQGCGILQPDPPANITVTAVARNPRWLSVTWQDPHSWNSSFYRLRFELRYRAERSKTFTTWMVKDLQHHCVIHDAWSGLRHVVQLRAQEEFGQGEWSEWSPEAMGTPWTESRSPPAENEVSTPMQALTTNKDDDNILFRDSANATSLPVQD
The experiment is described as follows: Biacore T100, IL-6R captured by BN-12. A general note: Surface plasmon resonance follows binding to a sensor surface in real time, without labels.

The target of a further experiment is T5, Cyno IL-6R (cynomolgus monkey, UniProt A0A2K5WN54 60-396).
T5 construct: also called cynomolgus monkey IL-6R; recombinant cyno sIL-6R
T5 sequence: T2 sequence
The experiment is described as follows: Biacore T100, IL-6R captured by BN-12.

Experiment [8] deals with T1, Human membrane IL-6R on cells. The experiment is described as follows: flow cytometry, CHO cells expressing human IL-6R, 4PL fit.
Experiment [9] has as its target T2, Cyno plasma sIL-6R. The experiment is described as follows: plasma potency ELISA, cyno plasma. On the technique in general: ELISA stands for enzyme-linked immunosorbent assay.
The target of experiment [10] is T2, Cyno plasma sIL-6R. The experiment is described as follows: plasma potency assay, cyno plasma, 2.4 nM IL6; blocked ligand IL-6.
Experimental: as §2
The target in experiment [11] is T3, Human plasma sIL-6R. The experiment is described as follows: plasma potency ELISA, human plasma. The source holds these as a separate data set.
A further experiment concerns the target T6, Mouse IL-6R (mouse, UniProt P22272 20-364, limits assumed).
T6 construct: also called mouse sIL-6R
T6 sequence (looked up): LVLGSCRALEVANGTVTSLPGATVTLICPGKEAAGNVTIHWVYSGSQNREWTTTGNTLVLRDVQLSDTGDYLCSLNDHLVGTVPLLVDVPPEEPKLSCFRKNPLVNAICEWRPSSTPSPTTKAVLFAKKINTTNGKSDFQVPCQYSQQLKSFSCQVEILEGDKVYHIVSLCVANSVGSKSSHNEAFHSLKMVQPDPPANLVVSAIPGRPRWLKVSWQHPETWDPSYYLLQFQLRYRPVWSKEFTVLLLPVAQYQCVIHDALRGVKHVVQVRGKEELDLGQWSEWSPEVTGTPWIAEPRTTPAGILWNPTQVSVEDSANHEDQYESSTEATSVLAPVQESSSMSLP
The experiment is described as follows: competition ELISA: IL6R20A11 (0.4 nM) pre-incubated with a series of recombinant mouse sIL-6R; free IL6R20A11 captured on biotinylated human sIL-6R on neutravidin.

B1: PMP20A11 (VHH)
VHH: EVQLVESGGGLVQPGGSLRLSCAASGSVFKINVMAWYRQAPGKGRELVAGIISGGSTSYADSVKGRFTISRDNAKNTLYLQMNSLRPEDTAVYYCAFITTESDYDLGRRYWGQGTLVTVSS
notes: also called IL6R20A11; IL6R300; not shown: c-myc and (His)6 tags
As usually defined, the EC50 is the concentration that produces a half-maximal response. High values mean lower potency in that assay, low ones higher potency in that assay. Broadly, the IC50 is the concentration that inhibits the measured activity by half. Usually kon stands for the second-order rate constant of association. Lower therefore signals slow association. Turning to B1, the EC50 in [1] worked out at 2.42 nM; in [2], 4.78 nM; in experiment [4] it was 3.62 nM; in experiment [7], 5.61 nM; in [8], 1.4 nM. In addition, in the experiment with Cyno plasma sIL-6R [3], the “Ratio (human/cyno) of IC50” value was 1.69. Moreover, the “IC50 (read off the curve)” value with Human plasma sIL-6R [5] is around 0.4 nM. Further, the IC50 with Human plasma sIL-6R [6] came out at 0.198 nM; with Cyno plasma sIL-6R [9], 0.117 nM; in the experiment with Cyno plasma sIL-6R [10], 0.09 nM. In addition, the kon in the experiment with Human soluble IL-6R and in the experiment with Cyno IL-6R was 1e+06 M⁻¹ s⁻¹ in each case. Further, the “Ratio (high/low) of IC50” value with Human plasma sIL-6R [11] was 1.8. Moreover, the binding result with Mouse IL-6R is recorded as “no binding (tested: about 200 ng/mL (log conc 2.3))”.
